Test results published in PMC3448795 (2012).

What was measured:
HDM2(25-47) [1] = biological target: T1, HDM2(25-47) (Homo sapiens, not fully specified; Ca2+; peptide N-acetylated, C-amidated); experiment: ITC
T1 chain: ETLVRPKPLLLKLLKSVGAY

NDR(62-87), site 2 = biological target: T2, NDR(62-87), site 2 (Homo sapiens, not fully specified; Ca2+; peptide N-acetylated, C-amidated); experiment: ITC
T2 chain: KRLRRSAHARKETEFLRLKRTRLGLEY

NDR(62-87), site 1 = biological target: T3, NDR(62-87), site 1 (Homo sapiens, not fully specified; Ca2+; peptide N-acetylated, C-amidated); experiment: ITC
T3 chain: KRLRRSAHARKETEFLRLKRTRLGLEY

HDM4(25-47) [2] = biological target: T4, HDM4(25-47) (Homo sapiens, not fully specified; Ca2+; peptide N-acetylated, C-amidated); experiment: ITC
T4 chain: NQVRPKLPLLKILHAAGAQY

[3] = biological target: T5, TRTK12 (CapZ peptide 265-276) (Homo sapiens, not fully specified); experiment: ITC
T5 chain: Ac-TRTKIDWNKILS-NH2

HDM2(25-47) [4] = biological target: T1, HDM2(25-47); experiment: NMR line shape analysis
HDM4(25-47) [5] = biological target: T4, HDM4(25-47); experiment: NMR line shape analysis
[6] = biological target: T5, TRTK12 (CapZ peptide 265-276); experiment: NMR line shape analysis

B1: S100B (protein)
chain: SELEKAMVALIDVFHQYSGREGDKHKLKKSELKELINNELSHFLEEIKEQEVVDKVMETLDNDGDGECDFQEFMAFVAMVTTACHEFFEHE
Work on B1 yielded a Kd (HDM2(25-47) [1]) of 500 nM, a Kd (NDR(62-87), site 2) of 2000 nM and a Kd (NDR(62-87), site 1) of 400 nM. For the same binder, the Kd (HDM4(25-47) [2]) was 70 nM, the Kd [3] was 2000 nM and the Kd (HDM2(25-47) [4]) was 100 nM. The Kd (HDM4(25-47) [5]) was 1000 nM and the Kd [6] was 1000 nM.
